This data set addresses RBPJ wt (UniProt P31266 1-526). Briefly: EMSA; anti-Flag supershift; 10 mM Tris-HCl pH 7.5, 100 mM NaCl, 0.1 mM EDTA, 0.5 mM DTT, 4% glycerol, 10 ng poly(dI-dC), ~0.5 ng 32P-oligo, 2 or 4 ul reticulocyte lysate; temperature not stated. The following applies: protein: ivt; tags: Flag; label: 32P; 5' overhang 4 nt at both ends (CCTG on F, CTCG on R). In general terms: Mobility shift assays separate free from complexed probe on a gel.

Chain of RBPJ wt (P31266 whole entry): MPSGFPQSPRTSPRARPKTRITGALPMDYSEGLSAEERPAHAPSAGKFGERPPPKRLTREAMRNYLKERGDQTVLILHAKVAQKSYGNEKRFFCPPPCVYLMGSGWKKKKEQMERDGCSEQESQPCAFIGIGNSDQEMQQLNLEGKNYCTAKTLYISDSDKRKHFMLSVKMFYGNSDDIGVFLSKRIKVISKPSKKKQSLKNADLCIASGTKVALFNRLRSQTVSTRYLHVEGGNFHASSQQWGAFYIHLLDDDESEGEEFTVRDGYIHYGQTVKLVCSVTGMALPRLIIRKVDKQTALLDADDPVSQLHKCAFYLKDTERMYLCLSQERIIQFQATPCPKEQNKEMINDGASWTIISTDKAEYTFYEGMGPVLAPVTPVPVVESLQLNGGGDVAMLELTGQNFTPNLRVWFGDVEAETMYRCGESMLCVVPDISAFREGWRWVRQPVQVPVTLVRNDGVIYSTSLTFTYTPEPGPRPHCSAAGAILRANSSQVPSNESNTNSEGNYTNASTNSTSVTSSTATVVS

B1: FO-233F/FO-233R (EBV TP-1 promoter, two RBPJ sites) (dsDNA)
DNA 1: CCTGGAACTATTTTCCCACGGTGCCCTTCCGCCCATTTTCCCACGAGTCG
DNA 2: CTCGCGACTCGTGGGAAAATGGGCGGAAGGGCACCGTGGGAAAATAGTTC
Turning to B1, the binding result was “binds”.

The values above are taken from PMC8325870, “SUMOylated non-canonical polycomb PRC1.6 complex as a prerequisite for recruitment of transcription factor RBPJ”.
